The values that follow come from patent US20130131320A1 (TOHOKU UNIVERSITY, published 2013).

B1: h528Fv 5.0.0 (other)
VH: QVQLVQSGAEVKKPGASVKVSCKASGYTFTSYWMHWVRQAPGQGLEWMGNIWPGSGGTNYAEKFKNRVTMTRDTSISTAYMELSRLRSDDTAVYYCARSGGPYFFDYWGQGTLVTVSS
VL: DIVMTQSPLSLPVTPGEPASISCRSSQNIVHNNGITYLEWYLQKPGQSPQLLIYKVSDRFSGVPDRFSGSGSGTDFTLKISRVEAEDVGVYYCFQGSHIPPTFGQGTKVEIKR
B2: h528Fv WT (other)
VH: QVQLVQSGAEVKKPGASVKVSCKASGYTFTSYWMHWVRQAPGQGLEWMGNIYPGSGGTNYAEKFKNRVTMTRDTSISTAYMELSRLRSDDTAVYYCARSGGPYFFDYWGQGTLVTVSS
VL: DIVMTQSPLSLPVTPGEPASISCRSSQNIVHNNGITYLEWYLQKPGQSPQLLIYKVSDRFSGVPDRFSGSGSGTDFTLKISRVEAEDVGVYYCFQGSHIPPTFGQGTKVEIKR
notes: Fv fragment: VH and VL co-expressed in E. coli BL21; Purified by metal chelate chromatography; the tag is not described; also called wild type humanized Fv
B3: h528Fv 5.98.0 (other)
VH: QVQLVQSGAEVKKPGASVKVSCKASGYTFTSYWMHWVRQAPGQGLEWMGNIWPGQGGTNYAEKFKSRVTMTRDTSISTAYMELSRLRSDDTAVYYCARSGGPYFFDYWGQGTLVTVSS
VL: DIVMTQSPLSLPVTPGEPASISCRSSQNIVHNNGITYLEWYLQKPGQSPQLLIYKVSDRFSGVPDRFSGSGSGTDFTLKISRVEAEDVGVYYCFQGSHIPPTFGQGTKVEIKR
B4: h528Fv 5.12.0 (other)
VH: QVQLVQSGAEVKKPGASVKVSCKASGYTFTSYWMHWVRQAPGQGLEWMGNIWPGKGGTNYAEKFQKRVTMTRDTSISTAYMELSRLRSDDTAVYYCARSGGPYFFDYWGQGTLVTVSS
VL: DIVMTQSPLSLPVTPGEPASISCRSSQNIVHNNGITYLEWYLQKPGQSPQLLIYKVSDRFSGVPDRFSGSGSGTDFTLKISRVEAEDVGVYYCFQGSHIPPTFGQGTKVEIKR
B5: h528Fv 5.73.0 (other)
VH: QVQLVQSGAEVKKPGASVKVSCKASGYTFTSYWMHWVRQAPGQGLEWMGNIWPGNGGTNYAEQFKQRVTMTRDTSISTAYMELSRLRSDDTAVYYCARSGGPYFFDYWGQGTLVTVSS
VL: DIVMTQSPLSLPVTPGEPASISCRSSQNIVHNNGITYLEWYLQKPGQSPQLLIYKVSDRFSGVPDRFSGSGSGTDFTLKISRVEAEDVGVYYCFQGSHIPPTFGQGTKVEIKR
B6: h528Fv 5.11.T (other)
VH: QVQLVQSGAEVKKPGASVKVSCKASGYTFTSYWMHWVRQAPGQGLEWMGNIWPGTGGTNYAEKFQQRVTMTRDTSISTAYMELSRLRSDDTAVYYCTRSGGPYFFDYWGQGTLVTVSS
VL: DIVMTQSPLSLPVTPGEPASISCRSSQNIVHNNGITYLEWYLQKPGQSPQLLIYKVSDRFSGVPDRFSGSGSGTDFTLKISRVEAEDVGVYYCFQGSHIPPTFGQGTKVEIKR

In one experiment the target is T1, soluble EGFR (human epithelial cell growth factor receptor 1, Her1) (human, UniProt P00533 25-645, limits assumed).
T1 construct: The metal chelate purification implies a His tag, but none is described; also called target antigen
As to the kind of experiment: ITC; lower end tied to 5.0.0 by Table 4 (14.9 against 1.9). The procedure:
(§1) The resulting mutants were then subjected to thermodynamic analysis by means of Isothermal Titration calorimeter. […] Binding enthalpy (ΔH) and binding coefficient (Ka) were calculated from the change of calorie during the above titration. Free Energy Change (ΔG) and Binding Entropy Change (ΔS) were then calculated from the above values.
As to B1, the “fold increase of Ka over h528Fv WT” value was 8 to 33 fold.

The next experiment concerns the target T1, soluble EGFR (human epithelial cell …). As to the kind of experiment: ITC, 50 uM Fv titrated into 5 uM soluble EGFR. The procedure: as §1
Take B2: the Ka turned out to be 1.9e+07 M⁻¹, the TΔS was -4.66 kcal/mol, the ΔG was -9.92 kcal/mol and the ΔH is -14.6 kcal/mol.
For B3 the same measures were 5.05e+08 M⁻¹, -6.43 kcal/mol, -11.9 kcal/mol and -18.4 kcal/mol.
For B4 the same measures were 4.42e+08 M⁻¹, -4.88 kcal/mol, -11.8 kcal/mol and -16.7 kcal/mol.
For B1, the Ka is 1.49e+08 M⁻¹, the TΔS is -9.85 kcal/mol, the ΔG was -11.2 kcal/mol and the ΔH is -21 kcal/mol.
Regarding B5, the Ka came out at 4.95e+08 M⁻¹, the TΔS is -5.14 kcal/mol, the ΔG is -11.9 kcal/mol and the ΔH was -17 kcal/mol.
For B6 the same measures were 5.24e+08 M⁻¹, -8.08 kcal/mol, -11.9 kcal/mol and -20 kcal/mol.
